Experimental data reported in patent publication US20050208048A1.

Target: human HLA-DR on cells (DRβ1 allele not stated) (human)
Assay: cell-based or functional assay

| Binder | suppression of SEB-triggered T cell proliferation ([3H]thymidine) | % Annexin V Propidium Iodide Positive, antibody at 5 µg/ml, with Z-VAD-fmk | % Annexin V Propidium Iodide Positive, antibody at 5 µg/ml, without Z-VAD-fmk |
| --- | --- | --- | --- |
| HLA-DR-specific monoclonal antibody L243 (antibody, from another filing, V domains shown) VH: QIQLVQSGPELKKPGETVKISCKASGFTFTNYGMNWVKQAPGKGLKWMGWINTYTREPTYADDFKGRFAFSLETSASTAYLQINNLKNEDTAKYFCARDITAVVPTGFDYWGQGTTLTVSS VL: DIQMTQSPASLSVSVGETVTITCRASENIYSNLAWYRQKQGKSPQLLVFAASNLADGVPSRFSGSGSGTQYSLKINSLQSEDFGDYYCQHFWTTPWAFGGGTNLEIKR | 70% | – | – |
| murine/human chimeric DN1924 HLA-DR-specific monoclonal antibody (antibody, human IgG2, kappa) heavy: EVKLLESGGGLVQPGGSLKLSCAASGFDFSRYWMSWVRQAPGKGLEWIGEINPDSSTINYTPSLKDKFIISRDNAKNTLYLQMSKVRSEDTALYYCARQPYYYGSSYWYFDVWGAGTTVTVSSAASTKGPSVFPLAPCSRSTSESTAALGCLVKDYFPEPVTVSWNSGALTSGVHTFPAVLQSSGLYSLSSVVTVTSSNFGTQTYTCNVDHKPSNTKVDKTVERKCCVECPPCPAPPAAAPSVFLFPPKPKDTLMISRTPEVTCVVVDVSHEDPEVQFNWYVDGMEVHNAKTKPREEQFNSTFRVVSVLTVVHQDWLNGKEYKCKVSNKGLPAPIEKTISKTKGQPREPQVYTLPPSREEMTKNQVSLTCLVKGFYPSDIAVEWESNGQPENNYKTTPPMLDSDGSFFLYSKLTVDKSRWQQGNVFSCSVMHEALHNHYTQKSLSLSPGK light: ETTVTQSPASLSMAIGEKVTIRCITSTDIDDDMNWYQQKPGEPPKLLISEGNTLRPGVPSRFSSSGYGTDFVFTIENMLSEDVADYYLQSDNLPYTFGGGTKLEIKTVAAPSVFIFPPSDEQLKSGTASVVCLLNNFYPREAKVQWKVDNALQSGNSQESVTEQDSKDSTYSLSSTLTLSKADYEKHKVYACEVTHQGLSSPVTKSFNRGEC | – | 52.7% | 57.4% |
